Experimental data: publication PMC2661133

Target: Anasazi bean lectin (lectin from seeds of Phaseolus vulgaris cv. Anasazi beans) (Phaseolus vulgaris)
Assay: SEC; FPLC-gel filtration on Superdex 200 HR 10/30 calibrated with molecular-mass standards, 20 mM Tris-HCl buffer (pH 7.3); 60 kDa peak set against the 30 kDa band in SDS-PAGE

## Anasazi bean lectin (lectin from seeds of Phaseolus vulgaris cv. Anasazi beans) (natural protein)
  stoichiometry N: 2
